The target of one assay is T1, 重组人CSF1R带his标签的蛋白 (human, UniProt P07333 20-512).
T1 construct: Bought protein used as coating antigen for hybridoma screening; also called 人CSF1R-his; CSF1R-his蛋白抗原; not shown: his tag
Kind of assay: ELISA screen of hybridoma supernatant on coated human CSF1R-his. (In general: ELISA stands for enzyme-linked immunosorbent assay.)

The target of a further assay is T2, 生物素标记人CSF1R Fc蛋白 (human, UniProt P07333 20-512, biotin-labelled (site not stated)).
T2 construct: range 20-512; also called CSF1R Fc biotin; 人CSF1R抗原; not shown: human IgG1 Fc tag at the C-terminus
T2 sequence (P07333 20-512 limits assumed): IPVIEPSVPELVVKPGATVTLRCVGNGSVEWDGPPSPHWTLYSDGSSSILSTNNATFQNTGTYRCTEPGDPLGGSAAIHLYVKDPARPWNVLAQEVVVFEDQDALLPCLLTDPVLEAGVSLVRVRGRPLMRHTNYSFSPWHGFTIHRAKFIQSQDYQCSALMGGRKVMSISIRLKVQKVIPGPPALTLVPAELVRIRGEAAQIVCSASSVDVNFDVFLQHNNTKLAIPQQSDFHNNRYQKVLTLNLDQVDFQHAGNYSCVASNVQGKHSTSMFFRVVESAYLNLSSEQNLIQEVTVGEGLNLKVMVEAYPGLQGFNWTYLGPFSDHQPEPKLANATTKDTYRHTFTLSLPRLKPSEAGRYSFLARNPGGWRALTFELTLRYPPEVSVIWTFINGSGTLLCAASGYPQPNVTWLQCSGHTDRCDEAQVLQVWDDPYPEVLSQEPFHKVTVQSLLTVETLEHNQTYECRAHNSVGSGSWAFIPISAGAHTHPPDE
Description: binding assays of Example 2 (capture ELISA with biotin-labelled human CSF1R Fc; flow cytometry on 293F cells expressing human CSF1R), summarised in Table 2.

T1 sequence (P07333 20-512 limits assumed): as above

B1: 1G6 抗人CSF-1R小鼠单克隆抗体 (antibody, V domains shown)
VH: QIQLVQSGPELKKPGETVKISCKASGYTFIIYGMNWVKQTPGRGLKWMGWINTYTGEPTYADDFKGRFAFSLETSASTASLQINNLKNEDTATYFCAREVYDGYPSHYAMDYWGQGTSVTVSS
VL: DIVMTQAAPSVPVTPGESVSISCRSSKSLLHSNGNTYLYWFLQRPGQSPQLLIYWMSNLASGVPDRFSGSGSGTAFTLRISRVEAEDVGVYYCLQHLEYPYTFGGGTKLEIK
notes: also called 1G6抗体; 本发明的抗人CSF-1R单克隆抗体
For the molecule B1, the binding result with 重组人CSF1R带his标签的蛋白 and with 生物素标记人CSF1R Fc蛋白 was “binds” in each case.

The values above are taken from CN108948199A (BOAOXIN BIOTECHNOLOGY NANJING CO LTD, dated 2018).
